T1: mStau2 full-length (Mus musculus, UniProt Q8CJ67 1-570)
T1 sequence: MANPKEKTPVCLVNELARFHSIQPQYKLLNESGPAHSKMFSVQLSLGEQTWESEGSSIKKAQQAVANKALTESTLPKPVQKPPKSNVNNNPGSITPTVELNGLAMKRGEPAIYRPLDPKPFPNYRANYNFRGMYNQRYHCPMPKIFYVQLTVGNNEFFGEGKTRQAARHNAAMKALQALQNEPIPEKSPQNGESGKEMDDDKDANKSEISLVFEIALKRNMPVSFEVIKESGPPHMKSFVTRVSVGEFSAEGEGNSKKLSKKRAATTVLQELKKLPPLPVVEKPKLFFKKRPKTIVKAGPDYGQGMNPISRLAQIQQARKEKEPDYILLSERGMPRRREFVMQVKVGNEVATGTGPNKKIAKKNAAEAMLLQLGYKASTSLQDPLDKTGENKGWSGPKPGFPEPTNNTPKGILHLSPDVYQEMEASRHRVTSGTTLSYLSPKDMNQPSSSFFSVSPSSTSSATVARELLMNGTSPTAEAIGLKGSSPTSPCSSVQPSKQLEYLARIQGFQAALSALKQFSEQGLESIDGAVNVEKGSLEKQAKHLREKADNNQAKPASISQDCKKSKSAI

T2: mStau2 dsRBD2 (Mus musculus, UniProt Q8CJ67 95-181)
T2 sequence: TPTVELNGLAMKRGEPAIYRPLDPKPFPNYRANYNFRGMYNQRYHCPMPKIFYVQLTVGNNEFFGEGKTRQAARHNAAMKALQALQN

T3: mStau2 dsRBD1-2 E99A (Mus musculus, UniProt Q8CJ67 8-181, E99A)
T3 sequence: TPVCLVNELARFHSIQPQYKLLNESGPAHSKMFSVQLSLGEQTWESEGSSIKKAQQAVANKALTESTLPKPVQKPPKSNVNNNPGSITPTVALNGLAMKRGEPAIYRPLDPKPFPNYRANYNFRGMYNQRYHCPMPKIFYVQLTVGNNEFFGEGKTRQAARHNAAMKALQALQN

T4: mStau2 dsRBD1-2 F157A (Mus musculus, UniProt Q8CJ67 8-181, F157A)
T4 sequence: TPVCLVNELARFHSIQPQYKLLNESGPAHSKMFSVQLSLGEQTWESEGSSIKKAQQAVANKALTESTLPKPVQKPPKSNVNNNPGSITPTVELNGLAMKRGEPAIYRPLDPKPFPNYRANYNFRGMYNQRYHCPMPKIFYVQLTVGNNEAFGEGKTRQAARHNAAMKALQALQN

T5: mStau2 dsRBD1-2 K59A (Mus musculus, UniProt Q8CJ67 8-181, K59A)
T5 sequence: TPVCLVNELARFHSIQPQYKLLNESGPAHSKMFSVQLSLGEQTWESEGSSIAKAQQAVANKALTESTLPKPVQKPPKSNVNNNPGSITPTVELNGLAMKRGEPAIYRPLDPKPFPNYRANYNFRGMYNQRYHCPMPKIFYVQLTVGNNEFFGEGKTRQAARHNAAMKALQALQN


Experiments:
mStau2 full-length = target: T1, mStau2 full-length; assay: EMSA; stated as 100 nM range; SPR: HBS-EP (10 mM HEPES pH 7.4, 150 mM NaCl, 3 mM EDTA, 0.005% P20); EMSA: 5 nM RNA, protein buffer (40 mM Bis-Tris pH 7, 150 mM NaCl, 2 mM DTT presumed), 4% glycerol, 30 ug/mL yeast tRNA, RT; NMR: 150 mM NaCl, 20 mM Na phosphate pH 7.0, 5 mM DTT, 298 K; conditions: protein: recombinant; tags: HisSUMO; label: 5' 32P (EMSA); biotin (SPR); imperfect hairpin, 26 bp with two bulges
mStau2 dsRBD2 [1] = target: T2, mStau2 dsRBD2; assay: SPR; Hill n 1.1; text says 829 nM; SPR: HBS-EP (10 mM HEPES pH 7.4, 150 mM NaCl, 3 mM EDTA, 0.005% P20); EMSA: 5 nM RNA, protein buffer (40 mM Bis-Tris pH 7, 150 mM NaCl, 2 mM DTT presumed), 4% glycerol, 30 ug/mL yeast tRNA, RT; NMR: 150 mM NaCl, 20 mM Na phosphate pH 7.0, 5 mM DTT, 298 K; conditions: protein: recombinant; label: 5' 32P (EMSA); biotin (SPR); imperfect hairpin, 26 bp with two bulges
mStau2 dsRBD1-2 E99A = target: T3, mStau2 dsRBD1-2 E99A; assay: SPR; Hill n 1.5; SPR: HBS-EP (10 mM HEPES pH 7.4, 150 mM NaCl, 3 mM EDTA, 0.005% P20); EMSA: 5 nM RNA, protein buffer (40 mM Bis-Tris pH 7, 150 mM NaCl, 2 mM DTT presumed), 4% glycerol, 30 ug/mL yeast tRNA, RT; NMR: 150 mM NaCl, 20 mM Na phosphate pH 7.0, 5 mM DTT, 298 K; conditions: protein: recombinant; label: 5' 32P (EMSA); biotin (SPR); hairpin, 18 bp stem
mStau2 dsRBD2 [2] = target: T2, mStau2 dsRBD2; assay: SPR; Hill n 1.3; SPR: HBS-EP (10 mM HEPES pH 7.4, 150 mM NaCl, 3 mM EDTA, 0.005% P20); EMSA: 5 nM RNA, protein buffer (40 mM Bis-Tris pH 7, 150 mM NaCl, 2 mM DTT presumed), 4% glycerol, 30 ug/mL yeast tRNA, RT; NMR: 150 mM NaCl, 20 mM Na phosphate pH 7.0, 5 mM DTT, 298 K; conditions: protein: recombinant; label: 5' 32P (EMSA); biotin (SPR); hairpin, 18 bp stem
mStau2 dsRBD1-2 F157A = target: T4, mStau2 dsRBD1-2 F157A; assay: SPR; Hill n 1.5; stable kinetics; SPR: HBS-EP (10 mM HEPES pH 7.4, 150 mM NaCl, 3 mM EDTA, 0.005% P20); EMSA: 5 nM RNA, protein buffer (40 mM Bis-Tris pH 7, 150 mM NaCl, 2 mM DTT presumed), 4% glycerol, 30 ug/mL yeast tRNA, RT; NMR: 150 mM NaCl, 20 mM Na phosphate pH 7.0, 5 mM DTT, 298 K; conditions: protein: recombinant; label: 5' 32P (EMSA); biotin (SPR); hairpin, 18 bp stem
mStau2 dsRBD1-2 K59A = target: T5, mStau2 dsRBD1-2 K59A; assay: SPR; Hill n 1.2; SPR: HBS-EP (10 mM HEPES pH 7.4, 150 mM NaCl, 3 mM EDTA, 0.005% P20); EMSA: 5 nM RNA, protein buffer (40 mM Bis-Tris pH 7, 150 mM NaCl, 2 mM DTT presumed), 4% glycerol, 30 ug/mL yeast tRNA, RT; NMR: 150 mM NaCl, 20 mM Na phosphate pH 7.0, 5 mM DTT, 298 K; conditions: protein: recombinant; label: 5' 32P (EMSA); biotin (SPR); hairpin, 18 bp stem

Binder	Kd (mStau2 full-length) [nM]	Kd (mStau2 dsRBD2 [1]) [nM]	Kd (mStau2 dsRBD1-2 E99A) [nM]	Kd (mStau2 dsRBD2 [2]) [nM]	Kd (mStau2 dsRBD1-2 F157A) [nM]	Kd (mStau2 dsRBD1-2 K59A) [nM]
SRS* (SRS3) (structured_RNA) RNA: GGUAUGUGUGAAUGUGCAUGAAUAUAUAUAUAUAUGCAUAUAUAUAUUUGUAUAUGUUCACACAUG	~100	828 ± 29	–	–	–	–
GGUAUAUACAUGCACAUGCAAUUUGUGUAUGUGUAUGUAUAUA (structured_RNA) [SRS2+5]	–	–	635 ± 308	650 ± 247	497 ± 238	509 ± 136
